These are literature values, as cited in patent publication US20110015134A1, “Method of treatment for early stage cancer” (priority 2007, published 2011).

For series [1], the system named is wound healing associated tumor growth. To be noted: reported in the literature.
The conditions of series [2]: in vivo.
The conditions of series [3]: in vivo. This is another data set of the same source.
For series [4] the following is noted: at any level, at any concentration.

On to `COc1ccc2c(c1)c(CC(=O)O)c(C)n2C(=O)c1ccc(Cl)cc1` [Indomethacin], for which the “prevention of wound healing associated / surgery induced tumor growth” value in series [1] is given as “effective in preventing wound healing associated tumor growth”.
Regarding “Avastin: angiogenesis inhibitor that inhibits VEGF”, in series [2], the dose limiting toxicity entry was “some dose limiting toxicity mainly hypertension”.
As for Endostatin, the half-life entry in series [3] was “half-life is short”. Moreover, in series [4], the toxicity entry is recorded as “never been shown to exhibit toxicity at any level at any concentration”.
As for `O=S1(=O)CCN(CN2CCS(=O)(=O)NC2)CN1` [Taurolidine], the “prevention of wound healing associated / surgery induced tumor growth” value in series [1] is “can prevent surgery induced tumor growth”.
